Test results published in patent US10646622B2, “Biologically active implants” (priority 1998, dated 2020).

B1: r-rGH: rat-specific recombinant growth hormone, subcutaneously injected (protein, UniProt P01244 27-216, looked up)
Somatotropin: FPAMPLSSLFANAVLRAQHLHQLAADTYKEFERAYIPEGQRYSIQNAQAAFCFSETIPAPTGKEEAQQRTDMELLRFSLLLIQSWLGPVQFLSRIFTNSLMFGTSDRVYEKLKDLEEGIQALMQELEDGSPRIGQILKQTYDKFDANMRSDDALLKNYGLLSCFKKDLHKAETYLRVMKCRRFAESSCAF

Test system: fracture of the right tibia
Type: in vivo, Sprague Dawley rats
Experimental: In an experiment with animals, tests were conducted on 60 such animals (5-months-old female Sprague Dawley rats). All test animals were subjected to a standardized fracture of the right tibia. Differently coated titanium wires (1.0 mm in diameter) were then implanted in the repositioned tibiae as intramedullary supports.
Depending on the group assignments as specified below 2 mg/kg of a rat-specific recombinant growth hormone (r-rGH) or a placebo was subcutaneously injected daily for a period of time up to 42 days. At various time points (0 d, 4 d, 7 d, 14 d, 21 d, 28 d, 35 d, and 42 d) and after administration of an anaesthetic inhalant, x-rays were taken in two planes, 1.25 ml of blood was taken from each by the retrobulbar method (deep-frozen at −80° C. (−112° F.)), and their weight and body temperature were measured. On day 42, the fractured and the unfractured tibiae, along with the periosteum, were separately prepared and subjected to biomechanical tests (torsional load-torsional stiffness).
Group Assignments • Group I: Fracture of the right tibia—uncoated implant— • Systemic application of a placebo (control group) • Group II: Fracture of the right tibia—implant coated with poly-D,L-lactide 203— • Systemic application of a placebo • Group III: Fracture of the right tibia—implant coated with poly-D,L-lactide— • Systemic application of (r-rGH) • Group IV: Fracture of the right tibia—implant coated with poly-D,L-lactide and growth factors IGF-I (5%) and TGF-β (1%)— • Systemic application of a placebo • Group V: Fracture of the right tibia—implant coated with poly-D,L-lactide and growth factors IGF-I (5%) and TGF-β (1%)— • Systemic application of (r-rGH)
The coated implants were produced as indicated in Example 1.

Row | Molecule | differences in weight and temperature among placebo groups I, II and IV (rat, in vivo) | body weight increase (2 mg/kg s.c. daily, compared to placebo, p<0.05) [%] | maximum torsional load (day 42, systemic 2 mg/kg s.c. daily with implant coated with poly-D,L-lactide (Group III), p<0.05)
1 | poly(D,L) lactide [PDLLA] | No major differences |  | 
2 | B1 |  | 13 | significant increase
